Here are results for 1 molecule from patent US20230303681A1.

Assay [1] deals with mouse TMEM106B (mouse) (UniProt Q80X71). The experiment in a line: FACS, HEK293 transfectants. For orientation: A flow cytometer gives signals particle by particle.
The target is the same in assay [2]. The experiment in a line: FACS Neuro2a.

B1: anti-TMEM106B antibody TM-4 (antibody, V domains shown)
VH: EVQVQQSGPVLVKPGASVKMSCKASGYTFTDYYMNWVKQSHGKNLEWIGVINPYNGGTSYHQKFKGKATLTVDKSSSTAYMELNSLTSEDSAVYYCARAATVVAGFDYWGQGTTLTVSS
VL: QAVVTQESALTTSPGETVTLTCRSSTGAVTTSNYANWVQEKPDHLFTGLIGGTNNRAPGVPARFSGSLIGDKAALTITGAQTEDEAIYFCVLWYSNHLVFGGGTKLTVL
Take B1: in assay [1], the fold-change over parental HEK293 was determined as 1.97 fold. In assay [2], this molecule yielded an MFI of 325.
